The data set deals with the molecule itself. The data set can be described thus: X-ray crystal structure of GmPDH1-NADP+-citrate, 1.69 A. The protocol: Crystals of GmPDH1 M219T/N222D formed in 16% (w/v) PEG 8000, 40 mM potassium phosphate dibasic, and 20% (v/v) glycerol. All crystals were flash-frozen in liquid nitrogen with mother liquor supplemented with 25% glycerol as a cryoprotectant.
The GmPDH1 structure was solved by single-wavelength anomalous dispersion (SAD) phasing. Diffraction data collected at beamline 19ID of the Argonne National Laboratory Advanced Photon Source were indexed, integrated, and scaled using HKL3000⁴⁸. SHELX⁴⁹ was used to determine initial SeMet positions and to estimate initial phases from the peak wavelength data set. SeMet positions and parameters were refined in MLPHARE⁵⁰. Solvent flattening was performed with DM⁵¹, and ARP/wARP⁵² was used to build an initial model. Iterative rounds of manual model building and refinement were performed with COOT⁵³ and PHENIX⁵⁴, respectively. The resulting model was used for molecular replacement into the higher resolution native data set using PHASER⁵⁵. Iterative rounds of manual model building and refinement, which included translation-libration-screen (TLS) models, used COOT and PHENIX, respectively. The native GmPDH1 structure was used for molecular replacement to solve the GmPDH1 N222D and GmPDH1 M219T/N222D structures. Each mutant structure was built and refined using the same method as the wild-type enzyme. […]

B1: Glycine max (soybean) prephenate dehydrogenase GmPDH1, wild type (enzyme)
chain: MSTSSSSQSLKIGIVGFGNFGQFLAKTMIKQGHTLTATSRSDYSELCLQMGIHFFRDVSAFLTADIDVIVLCTSILSLSEVVGSMPLTSLKRPTLFVDVLSVKEHPRELLLRELPEDSDILCTHPMFGPQTAKNGWTDHTFMYDKVRIRDEVICSNFIQIFATEGCKMVQMSCEEHDRAAAKSQFITHTIGRTLGEMDIQSTPIDTKGFETLVKLKETMMRNSFDLYSGLFVYNRFARQELENLEHALHKVKETLMIQRTNGEQGHKRTES
notes: also called Gm18g02650; 18g02650; not shown: N-terminal 6x-His tag from the pET28a vector
Turning to B1, the binding result is recorded as “binds”.

The record behind these values is patent US20250136952A1 (WISCONSIN ALUMNI RESEARCH FOUNDATION, published 2025).
